# Results: publication PMC6733660 (Virology, 2019)
# Where a chain is given by its changes, count along the chain named. Where two headings read alike, the source gives them in different places.
# T1: Pep-8 (gp350 aa 142–161) (Epstein-Barr virus, strain B95-8)
# T1 chain: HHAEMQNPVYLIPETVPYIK
# B1: HB7 (antibody, V domains shown)
# VH: ELVRPGASVKLSCKALGYTFTDYEMHWVKQTPVHGLEWIGTISPGRSGTAYNQKFKGKATLTADKSSRTAYMELNSLTSEDSAVYYCSRYGHPSYLDVWGAGTTVTVSS
# VL: FMSTSVGDRVNITCKASQSVGNAVAWFQQKPGQSPKLLIYSASNRYTGIPDRFTGSGSGTDFTLTCNNMQSEDLADYFCQQYSSYPLTFGAGTKLELK
# B2: HB8 (antibody, V domains shown)
# VH: ELKKPGETVKISCKASGYSFTNYGMNWVKQAPGKGLKWMGWINTYTGEPTYADDFKGRFAFSLETSASTAFLQINNLKNEDTATYLCARYYYGSVYSAWFAYWGQGTLVTVSA
# VL: LSLPVSLGDQASISCRSSQSIVHSNGNTYLEWYLQKAGQSPKLLIYKVSNRFSGVPDRFGGSGSGTDFTLKISRVEAEDLGVYYCFQGSHVPYTFGGGTKLEIK
# B3: HB9 (antibody, V domains shown)
# VH: GGLVKPGGSLKLSCAASGFTFSSYTMSWVRQTPEKRLEWVATISSGGSYIYYPDSVKGRFTISRDNAKNTLYLQMSSLKSEDTAIYYCTREDFYYGSSYGFFDVWGAGTTVTVSS
# VL: B2 VL
# B4: HB2 (antibody, V domains shown)
# VH: ELKKPGETVKISCKASGYTFTAYSMHWVKLTPGKGLKWMGWINTKTGEPTYADDFKGRFAFSLETSASTAYLQINNLKNEDTATYFCAPYGYALDYWGQGTSVTVSS
# VL: ILSASPGEKVTMTCRATSSVNYMHWYQQKPGSSPKPWIYATSNLASGVPARFSGSGSGTSYSLTISRVEAEDAATYYCQQWSSNPPTFGAGTKLELK
# B5: HB6 (antibody, V domains shown)
# VH: B4 VH with K3R, A22D, L30Q, K45R, T50R
# VL: B4 VL
# B6: HB5 (antibody, V domains shown)
# VH: ELVRPGASVKISCKAFGYTFTNHNINWVKQRPGQGLDWIGYINPYNDYTSYNQKFKGKATLTVDKSSNTAYMELSSLTSEDSAVYYCARSEGWLRRGAWFAYWGQGTLVTVSA
# VL: ILSVSPGERVSFSCRASQSIGTSIHWYQQRTNDSPRLLIKYASESISGIPPRFSGSGSGTDFTLSINSVESEDIADYHCQQSNSWPMLTFGAGTKLELK
# B7: HB17 (antibody, V domains shown)
# VH: ELVIPGASVKVSCKASGYTFTSYWIHWVKQWPGQGLEWIGEINPNNGHTNYNEKFKSKATLTVDKSSSTAYMQLSSLTSEDSAVYYCARNLFYYSRPDYWGQGTSVTVSS
# VL: SLSASLGDRVTISCRASQDIGNYLNWYQQKPDGTIKLLIYYTSRLHSGVPSRFSGSGSGTDYSLTISNLEEEDIATYFCQQGNTLPPTFGGGTKLEIK
# B8: HB20 (antibody, V domains shown)
# VH: B7 VH with I4K, V11L, H26Q, W31R, N45T, S57T, Q73R, F92Y, S95G
# VL: B7 VL with I35V, E71Q, T84A
# B9: HB10 (antibody, V domains shown)
# VH: B7 VH with I4R, V11L, I25M, L36P, N45S, K54R, S57N, F92Y, S95G
# VL: B7 VL with I35V
# B10: HB3 (antibody, V domains shown)
# VH: B7 VH with I4R, V11L, T21A, I25M, H26Q, K54R, S57N, T60S, F92Y, S95G
# VL: B7 VL
# B11: HB14 (antibody, V domains shown)
# VH: SGAELVRPGASVNLSCKALGYTFTDYEMHWVKQTPVYGLEWIGTIHPRRGGTAYNQRFKGKAALTADKSSSTAYMELSSLTSEDSAVYYCARYGYPWYFDVWGAGTTVTVSS
# VL: SLPVSLGDQASISCRSSQSIVHDNGNTYLEWYLQKPGQSPKLLIYKVSNRFSGVLDKFSGSGSGTDFTLKISRVEAEDLGIYYCFQGSHVPPTFGGGTKLEIK
# B12: HB22 (antibody, V domains shown)
# VH: GLVAPSQSLSITCTVSGFSLTNYGIHWVRQPPGKGLEWLVVIWSDGSTIYNSALKSRLSISKDNSKSQVFLKMNSLQTDDTAMYYCARNYYGNSYPAWFAYWGQGTLVTVSA
# VL: B11 VL with D23S, L55P, K57R, K70R, I81V, P92W
# B13: humanized 72A1 (h72A1) (antibody, V domains shown)
# VH: EVQLVESGGGLVQPGGSLRLSCAASGSSFTDYTMNWMRQSPGKGLEWIGLINPYNGGTRYADSVKGRATLSLDKSKNTAYLQMNSLRAEDTAIYYCAGGLRRVNWFAYWGQGTLVTVSS
# VL: DAQLTQSPILLSASVGDRVTITCRSSTGAVTTSNYANWVQERTNGSFRGLIGGTNNRVPGVPSRFSGSLSGDDATLTISSLQPEDEADYFCVLWHSNHWVFGAGTKVEIK
# B14: murine 72A1 (m72A1) (antibody, V domains shown)
# VH: EVQLQQSGPELVKPGTSMKISCKASGSSFTDYTMNWMKQSHGKNLEWIGLINPYNGGTRYNQKFKGKATLTLDKSSSTAYMEVLSLTSEDSAVYYCAGGLRRVNWFAYWGQGTLVSVSA
# VL: QAVLTQESALTTSPGETVTLTCRSSTGAVTTSNYANWVQEKPDHLFTGLIGGTNNRVPGVPARFSGSLIGDKAALTITGAQTEDEAIYFCVLWHSNHWVFGGGTKLTVL
# B15: HB11 (antibody, V domains shown)
# VH: SLVKPSQTLSLTCSVTGDSITSGFWNWIRKFPGNKLEYMGYISYSGSTYYNPSLKSRISITRDTSKNQYYLQLNSVTTEDTATYYCARGNGGNYDWYFDVWGAGTTVTVSS
# VL: IMSASLGEKVTMSCRASSSVNFMNWYQQKSDDSPKLLIYYISNLAPGVPARFSGSGSGNSYSLTISGMEGEDAATYYCQQFTSSPSWTFGGGTKLEIK
# What was measured:
# Test in all cases: ELISA
# [1] = target: T2, recombinant EBV gp350 ectodomain (aa 4–863) (Epstein-Barr virus, strain  …, UniProt P03200-1)
# T2 sequence (P03200 4-863): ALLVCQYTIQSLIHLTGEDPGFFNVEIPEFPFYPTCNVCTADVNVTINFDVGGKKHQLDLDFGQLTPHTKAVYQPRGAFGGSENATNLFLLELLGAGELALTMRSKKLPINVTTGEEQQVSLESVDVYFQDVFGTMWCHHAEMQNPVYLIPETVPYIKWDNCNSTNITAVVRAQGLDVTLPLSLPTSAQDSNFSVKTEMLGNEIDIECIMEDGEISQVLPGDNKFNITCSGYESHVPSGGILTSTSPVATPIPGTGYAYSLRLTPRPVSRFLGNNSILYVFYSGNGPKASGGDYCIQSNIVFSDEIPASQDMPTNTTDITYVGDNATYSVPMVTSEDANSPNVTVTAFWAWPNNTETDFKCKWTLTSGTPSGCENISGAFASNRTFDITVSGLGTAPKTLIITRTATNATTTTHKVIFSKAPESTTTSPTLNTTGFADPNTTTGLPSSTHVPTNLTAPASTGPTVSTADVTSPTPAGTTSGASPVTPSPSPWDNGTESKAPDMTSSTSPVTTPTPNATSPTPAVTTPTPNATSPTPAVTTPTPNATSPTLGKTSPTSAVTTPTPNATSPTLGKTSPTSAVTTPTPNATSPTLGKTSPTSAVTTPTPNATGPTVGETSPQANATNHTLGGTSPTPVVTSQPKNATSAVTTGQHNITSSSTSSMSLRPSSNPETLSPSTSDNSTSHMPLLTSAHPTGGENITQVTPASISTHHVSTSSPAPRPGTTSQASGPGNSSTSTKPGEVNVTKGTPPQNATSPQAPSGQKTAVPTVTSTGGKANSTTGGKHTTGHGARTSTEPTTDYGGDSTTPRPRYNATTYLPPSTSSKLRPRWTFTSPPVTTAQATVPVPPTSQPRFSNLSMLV
# Pep-8 (gp350 aa 142–161) = target: T1, Pep-8 (gp350 aa 142–161)
# [2] = target: T2, recombinant EBV gp350 ectodomain (aa …); remark: listed apart in the source
Binder,binding result [1],binding result (Pep-8 (gp350 aa 142–161)),binding result [2]
B1,binds,–,–
B2,binds,–,–
B3,binds,–,–
B4,binds,–,–
B5,binds,–,–
B6,–,binds,–
B7,binds,–,–
B8,–,binds,–
B9,binds,–,–
B10,binds,–,–
B11,binds,–,–
B12,binds,–,–
B13,–,binds,binds
B14,–,binds,–
B15,–,binds,–
